Sequences and labels used below:
B1: Carboxypeptidase Y-deficient protein 8 (Saccharomyces cerevisiae), P40335 (parent)
chain: MSIFFKPPIDIEILFDNEESRKHVDIATRSSNSSYKSMKESLPVYEDGESLGGIVTLRVRDSKKVDHLGIKVSVIGSIDMLKSHGSGNSSSKKVTSSTSSSSSNGSVDVRKNSVDQFLCQSYDLCPAGELQHSQSFPFLFRDLSKRYESYKGKNVDVAYYVKVTVMRKSTDISKIKRFWVYLYNSVTTAPNTLSANETKATTNDIAGGNYAADNASDNTQTKSTQGEAADVNQVLPISHSNNEPKPVRLDIGIENCLHIEFEYAKSQYSLKEVIVGRIYFLLTRLRIKHMELSLITRESSGLQTSNVMTDSTAIRYEIMDGSSVKGETIPIRLFLSGYDLTPNMSCNYFNVKNYLSLVIIDEDGRRYFKQSEITLYRTR

This is an account of results in IntAct's records for PubMed 16732284.

The experiment covers variants of B1. The following applies: with vps35_human VPS35, Q96QK1.
On to MSIFFKPPIDIEILFDNEESRKHVDIATRSSNSSYKSMKESLPVYEDGESLGGIVTLRVRDSKKVDHLGIKVSVIGSIDMLKSHGSGNSSSKKVTSSTSSSSSNGSVDVRKNSVDQFLCQSYDLCPAGELQHSQSFPFLFRDLSKRYESYKGKNVDVAYYVKVTVMRKSTDISKIKRFWVYLYNSVTTAPNTLSANETKATTNDIAGGNYAADNASDNTQTKSTQGEAADVNQVLPISHSNNEPKPVRLDIGIENCLHIEFEYAKSQYSLKEVIVGRIYFLLTRLRIKHMELSLITRESSGLQTSNVMTDSTAIRYEDDDGSSVKGETIPIRLFLSGYDLTPNMSCNYFNVKNYLSLVIIDEDGRRYFKQSEITLYRTR [I318D;M319D], for which the “effect of a mutation on the interaction” value is recorded as “disrupting interaction”.
